Source: patent publication US20130012427A1

Assays:
Assay in all cases: cell-based or functional assay
[1] = biological target: human amylin 3(a) receptor (human calcitonin receptor with RAMP-3) (human) (UniProt P30988)
[2] = biological target: human amylin 3(a) receptor (human calcitonin receptor co-expressed with RAMP-3) (human) (UniProt P30988)
[3] = biological target: human calcitonin (a) receptor (human) (UniProt P30988)
human calcitonin (a) receptor (human), sequence (P30988 25-474): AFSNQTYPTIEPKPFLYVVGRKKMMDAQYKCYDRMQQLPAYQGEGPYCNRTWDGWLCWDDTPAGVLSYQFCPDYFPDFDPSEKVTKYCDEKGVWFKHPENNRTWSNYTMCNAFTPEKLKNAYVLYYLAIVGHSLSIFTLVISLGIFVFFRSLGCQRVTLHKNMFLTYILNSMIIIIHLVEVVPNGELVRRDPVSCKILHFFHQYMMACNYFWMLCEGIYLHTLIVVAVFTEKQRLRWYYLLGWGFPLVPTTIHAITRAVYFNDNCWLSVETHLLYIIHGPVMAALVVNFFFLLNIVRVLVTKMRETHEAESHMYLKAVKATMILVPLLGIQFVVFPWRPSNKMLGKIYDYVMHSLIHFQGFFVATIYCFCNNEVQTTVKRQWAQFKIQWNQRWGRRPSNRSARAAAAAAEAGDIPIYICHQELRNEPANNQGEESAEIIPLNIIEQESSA

human amylin 3(a) receptor (human calcitonin receptor co-expressed with RAMP-3) (human), sequence (P30988 25-474, chain 1 of 2): as the sequence (P30988 25-474) above
human amylin 3(a) receptor (human calcitonin receptor co-expressed with RAMP-3) (human), sequence (O60896 24-148, chain 2 of 2, further chain): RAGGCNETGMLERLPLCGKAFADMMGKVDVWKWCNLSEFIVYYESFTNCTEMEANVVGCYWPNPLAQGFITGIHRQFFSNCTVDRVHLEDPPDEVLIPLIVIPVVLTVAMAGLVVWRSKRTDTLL
human amylin 3(a) receptor (human calcitonin receptor with RAMP-3) (human), sequence (P30988 25-474, chain 1 of 2): as the sequence (P30988 25-474) above
human amylin 3(a) receptor (human calcitonin receptor with RAMP-3) (human), sequence (O60896 24-148, chain 2 of 2, further chain): as the sequence (O60896 24-148, chain 2 of 2, further chain) above

Work on “N-alpha-(19-carboxynonadecanoyl)-Glu-Glu-Arg-[Glu1,Pro37]-pramlintide (peptide)” yielded an Amylin receptor human EC50 (pM) [1] of 45 pM, an Amylin receptor human EC50 (pM) [2] of 45 pM and a CTa receptor human EC50 (pM) [3] of 61.5 pM.
